One block for each binder: values may come before it. Bridge positions count the residues as written; N and C are the ends. Square brackets hold non-standard residues; d marks the D form. DBF = dibenzofuran moiety used in place of Pro-Pro
Tests used:
[1] = biological target: CD58 expressed on sheep red blood cells (SRBC) (sheep); assay: cell-based or functional assay
[2] = biological target: T1, CD58 expressed on OVCAR-3 and HFLS-RA cells (human, UniProt P19256 29-250); assay: cell-based or functional assay
T1 sequence (looked up): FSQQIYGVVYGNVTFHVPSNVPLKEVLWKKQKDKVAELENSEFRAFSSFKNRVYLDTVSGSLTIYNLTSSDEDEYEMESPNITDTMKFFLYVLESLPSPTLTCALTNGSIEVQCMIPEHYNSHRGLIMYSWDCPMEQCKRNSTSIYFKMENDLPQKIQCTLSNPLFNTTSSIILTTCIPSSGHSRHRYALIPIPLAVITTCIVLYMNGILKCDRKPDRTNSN

B1: Peptide 6 (peptide)
peptide: cyclo(SIYD[dP]PDDIK)
IC50, inhibition of E-rosette formation [1]: 9.4 nM

B4: SFTI-DBF (peptide)
peptide: cyclo(CKSA[DBF]SCAYDGDD)
modifications: disulfide 1-7 (inferred)
IC50, inhibition of adhesion between Jurkat and HFLS-RA cells [2]: 3 nM
IC50, inhibition of adhesion between Jurkat and OVCAR-3 cells [2]: 0.61 nM

More lines, now with the values ahead:

IC50, cell adhesion (PPI) inhibition [2]: 51 nM
B2: SFTI-a (peptide)
peptide: cyclo(CKASAPPSCYDGDD)
modifications: disulfide 1-9
SMILES: C[C@@H]1NC(=O)[C@H](CCCCN)NC(=O)[C@@H]2CSSC[C@H](NC(=O)[C@H](CO)NC(=O)[C@@H]3CCCN3C(=O)[C@@H]3CCCN3C(=O)[C@H](C)NC(=O)[C@H](CO)NC1=O)C(=O)N[C@@H](Cc1ccc(O)cc1)C(=O)N[C@@H](CC(=O)O)C(=O)NCC(=O)N[C@@H](CC(=O)O)C(=O)N[C@@H](CC(=O)O)C(=O)N2

IC50, cell adhesion inhibition [2]: 22 nM
B3: SFTI-a1 (peptide)
peptide: cyclo(CKSAPPSCAYDGDD)
modifications: disulfide 1-8
SMILES: C[C@@H]1NC(=O)[C@@H]2CSSC[C@H](NC(=O)[C@H](CC(=O)O)NC(=O)[C@H](CC(=O)O)NC(=O)CNC(=O)[C@H](CC(=O)O)NC(=O)[C@H](Cc3ccc(O)cc3)NC1=O)C(=O)N[C@@H](CCCCN)C(=O)N[C@@H](CO)C(=O)N[C@@H](C)C(=O)N1CCC[C@H]1C(=O)N1CCC[C@H]1C(=O)N[C@@H](CO)C(=O)N2

Reference: US20200347136A1 (published 2020)
